Measured values published in paper PMC12758282.

Biological target: T1, RstA (Escherichia coli O157:H7 (EHEC; strain not given in the material)) (UniProt P52108)
T1 sequence: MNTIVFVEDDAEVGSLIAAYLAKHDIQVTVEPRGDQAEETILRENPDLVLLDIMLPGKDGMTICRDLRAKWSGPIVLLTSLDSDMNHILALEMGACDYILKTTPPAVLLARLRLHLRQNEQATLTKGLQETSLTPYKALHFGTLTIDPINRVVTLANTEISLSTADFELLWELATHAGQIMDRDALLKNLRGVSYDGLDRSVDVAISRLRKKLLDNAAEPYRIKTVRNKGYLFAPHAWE
Experiment: EMSA

In the case of “GTTATCGCAGGGAGCCACACAGCGTGTGTTGGACGCGACTCAGCTTTACCTTGGTGAGATTGGTTATTCACCACTGTTAACGGCCGAAGAAGAAGTTTATTTTGCGCGTCGCGCACTGCGTGGAGATGTCGCCTCTCGCCGCCGGATGATCGAGAGTAACTTGCGTCTGGTGGTAAAA (double strand) [rpoS fragment]”, the binding is reported as “no binding”.
